From patent publication WO2011014457A1 (dated 2011)
Each block holds one binder with its values, some of them ahead of it.

Columns and labels:
[1] = target: T1, human MerFc (human, UniProt Q12866 21-499, limits assumed); assay: ELISA, Fc fusion captured on anti-human IgG Fc
T1 sequence (looked up): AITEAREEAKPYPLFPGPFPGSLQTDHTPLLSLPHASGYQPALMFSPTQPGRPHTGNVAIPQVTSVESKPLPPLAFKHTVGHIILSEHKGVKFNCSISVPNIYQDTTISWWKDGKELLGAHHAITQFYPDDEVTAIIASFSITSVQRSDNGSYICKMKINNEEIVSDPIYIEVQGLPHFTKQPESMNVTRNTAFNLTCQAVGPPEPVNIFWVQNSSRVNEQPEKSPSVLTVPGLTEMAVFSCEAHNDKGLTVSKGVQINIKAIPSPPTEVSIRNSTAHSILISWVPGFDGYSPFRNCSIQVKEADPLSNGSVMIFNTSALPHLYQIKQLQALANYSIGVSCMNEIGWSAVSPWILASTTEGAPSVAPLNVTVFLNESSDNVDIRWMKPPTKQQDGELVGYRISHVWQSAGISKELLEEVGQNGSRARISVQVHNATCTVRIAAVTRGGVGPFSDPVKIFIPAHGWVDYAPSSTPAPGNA

[2] = target: T2, human Tyro-3Fc (human, UniProt Q06418 41-428, limits assumed); assay: ELISA, Fc fusion captured on anti-human IgG Fc
T2 sequence (looked up): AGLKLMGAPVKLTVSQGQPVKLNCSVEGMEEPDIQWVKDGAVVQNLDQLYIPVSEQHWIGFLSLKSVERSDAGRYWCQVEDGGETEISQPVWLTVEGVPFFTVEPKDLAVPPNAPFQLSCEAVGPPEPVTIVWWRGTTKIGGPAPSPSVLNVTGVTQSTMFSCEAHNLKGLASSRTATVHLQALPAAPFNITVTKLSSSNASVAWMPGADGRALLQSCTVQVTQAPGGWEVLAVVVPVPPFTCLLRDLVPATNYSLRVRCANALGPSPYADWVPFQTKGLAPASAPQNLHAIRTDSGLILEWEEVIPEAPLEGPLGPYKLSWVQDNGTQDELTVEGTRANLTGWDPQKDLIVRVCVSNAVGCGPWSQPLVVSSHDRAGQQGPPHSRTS

[3] = target: T3, human AxI ECD-His (human, UniProt P30530 26-451); assay: SPR (BIAcore-3000), IgG captured by anti-human IgG, human AxI ECD-His injected
T3 construct: extracellular domain; also called human AxI ECD-His protein; Hu AxI

[4] = target: T4, murine AxI ECD-Fc fusion protein (murine, UniProt Q00993 19-445); assay: SPR (BIAcore-3000), murine AxI ECD-Fc captured by anti-human IgG, anti-Axl Fab fragment injected (per methods)
T4 construct: extracellular domain; also called murine AxIFc; mouse AxI.Fc
T4 sequence (Q00993 19-445): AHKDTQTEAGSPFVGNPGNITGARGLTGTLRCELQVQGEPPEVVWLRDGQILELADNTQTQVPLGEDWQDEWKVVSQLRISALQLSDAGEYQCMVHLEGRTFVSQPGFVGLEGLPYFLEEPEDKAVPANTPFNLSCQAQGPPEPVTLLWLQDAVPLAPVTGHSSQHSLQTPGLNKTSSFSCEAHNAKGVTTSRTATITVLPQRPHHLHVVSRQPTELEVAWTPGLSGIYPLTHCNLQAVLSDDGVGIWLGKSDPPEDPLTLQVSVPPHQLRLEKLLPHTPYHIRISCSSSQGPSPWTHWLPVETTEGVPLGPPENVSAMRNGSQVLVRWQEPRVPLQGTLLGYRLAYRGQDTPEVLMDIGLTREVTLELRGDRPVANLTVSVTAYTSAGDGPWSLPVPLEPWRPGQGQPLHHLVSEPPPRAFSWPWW

- binding result [1]: no binding
- binding result [2]: no binding
- Kd [3]: ~1 nM
B1: YW327.6S2 (antibody, V domains shown)
VH: EVQLVESGGGLVQPGGSLRLSCAASGFSLSGSWIHWVRQAPGKGLEWVGWINPYRGYAYYADSVKGRFTISADTSKNTAYLQMNSLRAEDTAVYYCAREYSGWGGSSVGYAMDYWGQGTLV
VL: DIQMTQSPSSLSASVGDRVTITCRASQDVSTAVAWYQQKPGKAPKLLIYSASFLYSGVPSRFSGSGSGTDFTLTISSLQPEDFATYYCQQSYTTPPTFGQGTKVEIKR
notes: also called AxI mAb YW327.6S2

- Kd [4]: 0.545 nM
B2: YW327.6S2 Fab fragment (Fab, V domains shown)
VH: B1 VH
VL: B1 VL
notes: also called anti-Axl Fab fragment
